Where “and” joins values, the source holds several entries; their conditions need not be identical. Equal entries are not always repeated. Where two headings read alike, the source gives them in different places. One block for each substance: values may come before it.
What was measured:
[1] = biological target: Abeta 1-40 monomer (UniProt P05067); assay: MPA bead capture, Abeta 1-40 read-out of the CSF sample (noise)
[2] = biological target: Abeta (1-42) aggregates from Alzheimer's Disease Brain Homogenate (human) (UniProt P05067); assay: MPA, AD brain homogenate in plasma, Abeta(1-42) ELISA
[3] = biological target: Abeta 1-42 globulomer (UniProt P05067)
[4] = biological target: PrPSc, prion aggregates of prion infected hamster (Syrian hamster) (UniProt P04273); assay: cell-based or functional assay
[5] = biological target: Abeta 1-42 globulomer (UniProt P05067); assay: MPA, pulldown in CSF, 1% TW20 wash
[6] = biological target: Abeta 1-42 monomer (UniProt P05067); assay: MPA, unspiked CSF background, ASB-14 wash
[7] = biological target: Abeta 1-42 monomer (UniProt P05067); assay: MPA, unspiked CSF background, ASB-16 wash
[8] = biological target: Abeta 1-42 monomer (UniProt P05067); assay: MPA, unspiked CSF background, ZW3-08 wash
[9] = biological target: Abeta 1-42 monomer (UniProt P05067); assay: MPA, unspiked CSF background, ZW3-12 wash
[10] = biological target: Abeta 1-42 monomer (UniProt P05067); assay: MPA, unspiked CSF background, ZW3-14 wash
[11] = biological target: Abeta 1-42 monomer (UniProt P05067); assay: MPA, unspiked CSF background, ZW3-16 wash
[12] = biological target: Abeta 1-42 monomer (UniProt P05067); assay: MPA, unspiked CSF background, Brij 35 wash
[13] = biological target: Abeta 1-42 monomer (UniProt P05067); assay: MPA, unspiked CSF background, Empigen wash
[14] = biological target: Abeta 1-42 globulomer (UniProt P05067); assay: MPA, CSF + 0.5 ng/mL globulomer, ASB-14 wash
[15] = biological target: Abeta 1-42 globulomer (UniProt P05067); assay: MPA, CSF + 0.5 ng/mL globulomer, ASB-16 wash
[16] = biological target: Abeta 1-42 globulomer (UniProt P05067); assay: MPA, CSF + 0.5 ng/mL globulomer, ZW3-08 wash
[17] = biological target: Abeta 1-42 globulomer (UniProt P05067); assay: MPA, CSF + 0.5 ng/mL globulomer, ZW3-12 wash
[18] = biological target: Abeta 1-42 globulomer (UniProt P05067); assay: MPA, CSF + 0.5 ng/mL globulomer, ZW3-14 wash
[19] = biological target: Abeta 1-42 globulomer (UniProt P05067); assay: MPA, CSF + 0.5 ng/mL globulomer, ZW3-16 wash
[20] = biological target: Abeta 1-42 monomer (UniProt P05067); assay: MPA, unspiked CSF background, ASB-C8phn wash
[21] = biological target: Abeta 1-42 globulomer (UniProt P05067); assay: MPA, pulldown in CSF, no added detergent wash
[22] = biological target: Abeta 1-42 globulomer (UniProt P05067); assay: MPA, CSF + 0.5 ng/mL globulomer, Brij 35 wash
[23] = biological target: Abeta 1-42 globulomer (UniProt P05067); assay: MPA, CSF + 0.5 ng/mL globulomer, Empigen wash
[24] = biological target: Abeta 1-42 globulomer (UniProt P05067); assay: MPA, pulldown in TBSTT, no added detergent wash
[25] = biological target: Abeta 1-42 globulomer (UniProt P05067); assay: MPA, CSF + 0.5 ng/mL globulomer, ASB-C8phn wash
[26] = biological target: Abeta 1-42 monomer (UniProt P05067); assay: MPA, unspiked CSF background, Pluronic F-127 wash
[27] = biological target: Abeta 1-42 globulomer (UniProt P05067); assay: MPA, PSR1 beads, globulomer spiked into normal CSF
[28] = biological target: Abeta 1-42 globulomer (UniProt P05067); assay: 42 (globulomer) RLU over 40 (Abeta 1-40 monomer) RLU
[29] = biological target: Abeta 1-42 globulomer (UniProt P05067); assay: MPA, 0.5 over 0 ng/mL globulomer in CSF, ASB-14 wash
[30] = biological target: Abeta 1-42 globulomer (UniProt P05067); assay: MPA, 0.5 over 0 ng/mL globulomer in CSF, ASB-16 wash
[31] = biological target: Abeta 1-42 globulomer (UniProt P05067); assay: MPA, 0.5 over 0 ng/mL globulomer in CSF, ZW3-08 wash
[32] = biological target: Abeta 1-42 globulomer (UniProt P05067); assay: MPA, 0.5 over 0 ng/mL globulomer in CSF, ZW3-12 wash
[33] = biological target: Abeta 1-42 globulomer (UniProt P05067); assay: MPA, 0.5 over 0 ng/mL globulomer in CSF, ZW3-14 wash
[34] = biological target: Abeta 1-42 globulomer (UniProt P05067); assay: MPA, 0.5 over 0 ng/mL globulomer in CSF, ZW3-16 wash
[35] = biological target: Abeta 1-42 globulomer (UniProt P05067); assay: MPA, CSF + 0.5 ng/mL globulomer, Pluronic F-127 wash
[36] = biological target: Abeta 1-42 globulomer (UniProt P05067); assay: MPA, 0.5 over 0 ng/mL globulomer in CSF, Brij 35 wash
[37] = biological target: Abeta 1-42 globulomer (UniProt P05067); assay: MPA, 0.5 over 0 ng/mL globulomer in CSF, Empigen wash
[38] = biological target: ADDL (Abeta42 aggregate) (UniProt P05067); assay: MPA, serial dilutions in CSF, LoD = 2x over background
[39] = biological target: ASPD (Abeta42 aggregate) (UniProt P05067); assay: as above
[40] = biological target: Abeta 1-42 globulomer (UniProt P05067); assay: as above
[41] = biological target: Abeta 1-42 monomer (UniProt P05067); assay: as above
[42] = biological target: Abeta42 fibrils (UniProt P05067); assay: as above
[43] = biological target: ADDL (Abeta42 aggregate) (UniProt P05067); assay: as above; remark: listed apart in the source
[44] = biological target: ASPD (Abeta42 aggregate) (UniProt P05067); assay: as above; remark: listed apart in the source
[45] = biological target: Abeta (1-42) aggregates from Alzheimer's Disease Brain Homogenate (human) (UniProt P05067); assay: as above
[46] = biological target: Abeta 1-42 globulomer (UniProt P05067); assay: as above; remark: listed apart in the source
[47] = biological target: Abeta42 fibrils (UniProt P05067); assay: as above; remark: listed apart in the source
[48] = biological target: Abeta 1-42 globulomer (UniProt P05067); assay: MPA, 0.5 over 0 ng/mL globulomer in CSF, ASB-C8phn wash
[49] = biological target: Abeta 1-42 globulomer (UniProt P05067); assay: MPA, PSR1 beads, globulomer spiked into buffer (TBSTT)
[50] = biological target: Abeta 1-42 globulomer (UniProt P05067); assay: MPA, 0.5 over 0 ng/mL globulomer in CSF, Pluronic F-127 wash
[51] = biological target: Abeta 1-42 globulomer (UniProt P05067); assay: MPA bead capture, CSF + 1 ng/mL globulomer, Abeta immunoassay
[52] = biological target: Abeta (1-42) aggregates from Alzheimer's Disease Brain Homogenate (human) (UniProt P05067); assay: MPA, serial dilutions of ADBH in CSF, LoD = 2x over background
[53] = biological target: Abeta 1-42 globulomer (UniProt P05067); assay: MPA, globulomer Abeta 42 RLU over average Abeta 40 RLU, ASB-14 wash
[54] = biological target: Abeta 1-42 globulomer (UniProt P05067); assay: MPA, globulomer Abeta 42 RLU over average Abeta 40 RLU, ASB-16 wash
[55] = biological target: Abeta 1-42 globulomer (UniProt P05067); assay: MPA, globulomer Abeta 42 RLU over average Abeta 40 RLU, ZW3-08 wash
[56] = biological target: Abeta 1-42 globulomer (UniProt P05067); assay: MPA, globulomer Abeta 42 RLU over average Abeta 40 RLU, ZW3-12 wash
[57] = biological target: Abeta 1-42 globulomer (UniProt P05067); assay: MPA, globulomer Abeta 42 RLU over average Abeta 40 RLU, ZW3-14 wash
[58] = biological target: Abeta 1-42 globulomer (UniProt P05067); assay: MPA, globulomer Abeta 42 RLU over average Abeta 40 RLU, ZW3-16 wash
[59] = biological target: Abeta 1-42 globulomer (UniProt P05067); assay: MPA, globulomer Abeta 42 RLU over average Abeta 40 RLU, Brij 35 wash
[60] = biological target: Abeta 1-42 globulomer (UniProt P05067); assay: MPA, globulomer Abeta 42 RLU over average Abeta 40 RLU, Empigen wash
[61] = biological target: Abeta 1-42 globulomer (UniProt P05067); assay: MPA, globulomer Abeta 42 RLU over average Abeta 40 RLU, ASB-C8phn wash
[62] = biological target: Abeta 1-42 globulomer (UniProt P05067); assay: MPA, globulomer Abeta 42 RLU over average Abeta 40 RLU, Pluronic F-127 wash

Substance: AAKKKA (peptide)
average RLU (40) [1]: 159 RLU

Substance: KKKKKK (peptide)
average RLU (40) [1]: 197 RLU

Substance: ANFFAHSS (peptide)
average RLU (40) [1]: 543 RLU

Substance: AKKKKA (peptide)
average RLU (40) [1]: 156 RLU

average RLU (40) [1]: 192 RLU
Substance: KKKFKF-link (peptide)

Substance: biotinylated PSR1 (+++A+A) on streptavidin magnetic beads
limit of detection [2]: 3.8 mL/assay

Substance: PSR1 (peptoid, directly conjugated to Dynal M270 beads)
LoD of globulomer, RLU (S/N = 2) [3]: 199 RLU
LoD of globulomer, pg/mL (Cal) [3]: 2.33 pg/mL
S/N at 25.3 pg/mL [3]: 10.3
Attack rate (Clinical TSE/total inoculated), Pool 2 [4]: 100%
Attack rate (Clinical TSE/total inoculated), Pool 3 (pre-symptomatic) [4]: 50%
Attack rate (Clinical TSE/total inoculated), Pool 4 [4]: 100%
Mean incubation period (days), Pool 1 [4]: 94 dpi
Mean incubation period (days), Pool 2 [4]: 74 dpi
Mean incubation period (days), Pool 4 [4]: 76 dpi
incubation period (days), Pool 3 (pre-symptomatic) [4]: 56 days and 85 days
LoD of globulomer, RLU (S/N = 2) [5]: 211 RLU
LoD of globulomer, pg/mL (Cal) [5]: 2.52 pg/mL
S/N at 25.3 pg/mL [5]: 11
Abeta 42 RLU, 0 ng/mL Average [6]: 89.7 RLU
Abeta 42 RLU, 0 ng/mL Average [7]: 95.7 RLU
Abeta 42 RLU, 0 ng/mL Average [8]: 97.7 RLU
Abeta 42 RLU, 0 ng/mL Average [9]: 90.7 RLU
Abeta 42 RLU, 0 ng/mL Average [10]: 110 RLU
Abeta 42 RLU, 0 ng/mL Average [11]: 67 RLU
Abeta 42 RLU, 0 ng/mL Average [12]: 117 RLU
Abeta 42 RLU, 0 ng/mL Average [13]: 76.7 RLU
Abeta 42 RLU, 0.5 ng/mL Average [14]: 779 RLU
Abeta 42 RLU, 0.5 ng/mL Average [15]: 789 RLU
Abeta 42 RLU, 0.5 ng/mL Average [16]: 669 RLU
Abeta 42 RLU, 0.5 ng/mL Average [17]: 642 RLU
Abeta 42 RLU, 0.5 ng/mL Average [18]: 842 RLU
Abeta 42 RLU, 0.5 ng/mL Average [19]: 731 RLU
Abeta 42 RLU, 0 ng/mL Average [20]: 101 RLU
LoD of globulomer, RLU (S/N = 2) [21]: 456 RLU
LoD of globulomer, pg/mL (Cal) [21]: 6.16 pg/mL
S/N at 25.3 pg/mL [21]: 5.7
Abeta 42 RLU, 0.5 ng/mL Average [22]: 741 RLU
Abeta 42 RLU, 0.5 ng/mL Average [23]: 670 RLU
LoD of globulomer, RLU (S/N = 2) [24]: 204 RLU
LoD of globulomer, pg/mL (Cal) [24]: 2.34 pg/mL
S/N at 25.3 pg/mL [24]: 13.7
Abeta 42 RLU, 0.5 ng/mL Average [25]: 936 RLU
Abeta 42 RLU, 0 ng/mL Average [26]: 117 RLU
limit of detection (LoD) [27]: 10 pM
42:40 ratio [28]: 4.1
S/N Abeta 42 globulomer-spiked/unspiked [29]: 8.7
S/N Abeta 42 globulomer-spiked/unspiked [30]: 8.2
S/N Abeta 42 globulomer-spiked/unspiked [31]: 6.8
S/N Abeta 42 globulomer-spiked/unspiked [32]: 7.1
S/N Abeta 42 globulomer-spiked/unspiked [33]: 7.7
S/N Abeta 42 globulomer-spiked/unspiked [34]: 10.9
Abeta 42 RLU, 0.5 ng/mL Average [35]: 739 RLU
S/N Abeta 42 globulomer-spiked/unspiked [36]: 6.3
S/N Abeta 42 globulomer-spiked/unspiked [37]: 8.7
LoD [38]: 200 pg/mL
LoD (amol) [38]: 20 amol
LoD [39]: 200 pg/mL
LoD (amol) [39]: 20 amol
LoD [40]: 75 pg/mL
LoD (amol) [40]: 140 amol
LoD [41]: 1000 pg/mL
LoD (amol) [41]: 22000 amol
LoD [42]: 50 pg/mL
LoD (amol) [42]: < 2 amol
LoD [43]: 200 pg/mL
LoD [44]: 200 pg/mL
LoD [45]: < 5 pg/mL
LoD [46]: 75 pg/mL
LoD [47]: 50 pg/mL
S/N Abeta 42 globulomer-spiked/unspiked [48]: 9.3
limit of detection (LoD) [49]: 5 pM
S/N Abeta 42 globulomer-spiked/unspiked [50]: 6.3
average RLU (42) [51]: 970 RLU
LoD (amol) [52]: < 0.2 amol
average RLU (40) [1]: 234 RLU
S/N Abeta 42 globulomer-spiked/Abeta 40 [53]: 2
S/N Abeta 42 globulomer-spiked/Abeta 40 [54]: 2.8
S/N Abeta 42 globulomer-spiked/Abeta 40 [55]: 0.9
S/N Abeta 42 globulomer-spiked/Abeta 40 [56]: 1.4
S/N Abeta 42 globulomer-spiked/Abeta 40 [57]: 2.2
S/N Abeta 42 globulomer-spiked/Abeta 40 [58]: 3.7
S/N Abeta 42 globulomer-spiked/Abeta 40 [59]: 1
S/N Abeta 42 globulomer-spiked/Abeta 40 [60]: 2.6
S/N Abeta 42 globulomer-spiked/Abeta 40 [61]: 1.4
S/N Abeta 42 globulomer-spiked/Abeta 40 [62]: 0.9

— patent US20130109581A1, “POSITIVELY CHARGED SPECIES AS BINDING REAGENTS IN THE SEPARATION OF PROTEIN AGGREGATES FROM MONOMERS” (priority 2009, published 2013)
